US20120316071A1 (published 2012)
Substitutions are numbered along the chain they refer to. Numbers in names are those of the source.

B1: Fab VH5-51_IGHD5-18*01>3_IGHJ4*01 G100K/G104T G24T/S28R/G35V (H:KT TRV) & V3-4_IGLJ1*01 V91L/S96P S57D (Fab, V domains shown)
VH: EVQLVQSGAEVKKPGESLKISCKTSGYRFTSYWIVWVRQMPGKGLEWMGIIYPGDSDTRYSPSFQGQVTISADKSISTAYLQWSSLKASDTAMYYCARRKYSYTYDYFDYWGQGTLVTVSS
VL: QTVVTQEPSFSVSPGGTVTLTCGLSSGSVSTSYYPSWYQQTPGQAPRTLIYSTNTRDSGVPDRFSGSILGNKAALTITGAQADDESDYYCLLYMGPGISYVFGTGTKVTVL
notes: Fab made in E. coli: VH in plasmid A (CH1, His6 and Flag tags), VL in plasmid E (lambda CL); also called H:KT TRV & L:LP S57D
B2: Fab VH5-51_IGHD5-18*01>3_IGHJ4*01 G100K/G104T G24T/S28R/G35V (H:KT TRV) & V3-4_IGLJ1*01 V91L/S96P S57H (Fab, V domains shown)
VH: B1 VH
VL: B1 VL with D57H
notes: Fab made in E. coli: VH in plasmid A (CH1, His6 and Flag tags), VL in plasmid E (lambda CL); also called H:KT TRV & L:LP S57H
B3: Fab VH5-51_IGHD5-18*01>3_IGHJ4*01 G100K/G104T G24T/S28R/G35V (H:KT TRV) & V3-4_IGLJ1*01 V91L/S96P S57L (Fab, V domains shown)
VH: B1 VH
VL: B1 VL with D57L
notes: Fab made in E. coli: VH in plasmid A (CH1, His6 and Flag tags), VL in plasmid E (lambda CL); also called H:KT TRV & L:LP S57L
B4: Fab VH5-51_IGHD5-18*01>3_IGHJ4*01 G100K/G104T G24T/S28R/G35V (H:KT TRV) & V3-4_IGLJ1*01 V91L/S96P S57K (Fab, V domains shown)
VH: B1 VH
VL: B1 VL with D57K
notes: Fab made in E. coli: VH in plasmid A (CH1, His6 and Flag tags), VL in plasmid E (lambda CL); also called H:KT TRV & L:LP S57K
B5: Fab VH5-51_IGHD5-18*01>3_IGHJ4*01 G100K/G104T G24T/S28R/G35V (H:KT TRV) & V3-4_IGLJ1*01 V91L/S96P S57G (Fab, V domains shown)
VH: B1 VH
VL: B1 VL with D57G
notes: Fab made in E. coli: VH in plasmid A (CH1, His6 and Flag tags), VL in plasmid E (lambda CL); also called H:KT TRV & L:LP S57G
B6: Fab VH5-51_IGHD5-18*01>3_IGHJ4*01 G100K/G104T G24T/S28R/G35V (H:KT TRV) & V3-4_IGLJ1*01 V91L/S96P S57F (Fab, V domains shown)
VH: B1 VH
VL: B1 VL with D57F
notes: Fab made in E. coli: VH in plasmid A (CH1, His6 and Flag tags), VL in plasmid E (lambda CL); also called H:KT TRV & L:LP S57F
B7: Fab VH5-51_IGHD5-18*01>3_IGHJ4*01 G100K/G104T G24T/S28R/G35V (H:KT TRV) & V3-4_IGLJ1*01 V91L/S96P S57E (Fab, V domains shown)
VH: B1 VH
VL: B1 VL with D57E
notes: Fab made in E. coli: VH in plasmid A (CH1, His6 and Flag tags), VL in plasmid E (lambda CL); also called H:KT TRV & L:LP S57E
B8: Fab VH5-51_IGHD5-18*01>3_IGHJ4*01 G100K/G104T G24T/S28R/G35V (H:KT TRV) & V3-4_IGLJ1*01 V91L/S96P S57I (Fab, V domains shown)
VH: B1 VH
VL: B1 VL with D57I
notes: Fab made in E. coli: VH in plasmid A (CH1, His6 and Flag tags), VL in plasmid E (lambda CL); also called H:KT TRV & L:LP S57I
B9: Fab VH1-46_IGHD6-6*01_IGHJ1*01 S102A/S103P/S104F/H111F N52L & L6_IGKJ1*01 (Fab, V domains shown)
VH: QVQLVQSGAEVKKPGASVKVSCKASGYTFTSYYMHWVRQAPGQGLEWMGIILPSGGSTSYAQKFQGRVTMTRDTSTSTVYMELSSLRSEDTAVYYCAREEYAPFSAEYFQFWGQGTLVTVSS
VL: not shown
notes: Fab from E. coli; CH1 (with His and Flag tags) and kappa CL come from the expression plasmids; also called APFF N52L
B10: Fab VH1-46_IGHD6-6*01_IGHJ1*01 S102A/S103P/S104F/H111F N52S & L6_IGKJ1*01 (Fab, V domains shown)
VH: B9 VH with L52S
VL: not shown
notes: Fab from E. coli; CH1 (with His and Flag tags) and kappa CL come from the expression plasmids; also called APFF N52S
B11: Fab VH1-46_IGHD6-6*01_IGHJ1*01 S102A/S103P/S104F/H111F N52W & L6_IGKJ1*01 (Fab, V domains shown)
VH: B9 VH with L52W
VL: not shown
notes: Fab from E. coli; CH1 (with His and Flag tags) and kappa CL come from the expression plasmids; also called APFF N52W
B12: Fab VH1-46_IGHD6-6*01_IGHJ1*01 S102A/S103P/S104F/H111F N52P & L6_IGKJ1*01 (Fab, V domains shown)
VH: B9 VH with L52P
VL: not shown
notes: Fab from E. coli; CH1 (with His and Flag tags) and kappa CL come from the expression plasmids; also called APFF N52P
B13: Fab VH1-46_IGHD6-6*01_IGHJ1*01 S102A/S103P/S104F/H111F N52R & L6_IGKJ1*01 (Fab, V domains shown)
VH: B9 VH with L52R
VL: not shown
notes: Fab from E. coli; CH1 (with His and Flag tags) and kappa CL come from the expression plasmids; also called APFF N52R
B14: Fab VH1-46_IGHD6-6*01_IGHJ1*01 S102A/S103P/S104F/H111F N52Q & L6_IGKJ1*01 (Fab, V domains shown)
VH: B9 VH with L52Q
VL: not shown
notes: Fab from E. coli; CH1 (with His and Flag tags) and kappa CL come from the expression plasmids; also called APFF N52Q
B15: Fab VH1-46_IGHD6-6*01_IGHJ1*01 S102A/S103P/S104F/H111F N52Y & L6_IGKJ1*01 (Fab, V domains shown)
VH: B9 VH with L52Y
VL: not shown
notes: Fab from E. coli; CH1 (with His and Flag tags) and kappa CL come from the expression plasmids; also called APFF N52Y
B16: Fab VH1-46_IGHD6-6*01_IGHJ1*01 S102A/S103P/S104F/H111F N52V & L6_IGKJ1*01 (Fab, V domains shown)
VH: B9 VH with L52V
VL: not shown
notes: Fab from E. coli; CH1 (with His and Flag tags) and kappa CL come from the expression plasmids; also called APFF N52V
B17: Fab VH1-46_IGHD6-6*01_IGHJ1*01 S102A/S103P/S104F/H111F N52T & L6_IGKJ1*01 (Fab, V domains shown)
VH: B9 VH with L52T
VL: not shown
notes: Fab from E. coli; CH1 (with His and Flag tags) and kappa CL come from the expression plasmids; also called APFF N52T
B18: Fab VH1-46_IGHD6-6*01_IGHJ1*01 S102A/S103P/S104F/H111F S54I & L6_IGKJ1*01 (Fab, V domains shown)
VH: B9 VH with L52N, S54I
VL: not shown
notes: Fab from E. coli; CH1 (with His and Flag tags) and kappa CL come from the expression plasmids; also called APFF S54I
B19: Fab VH1-46_IGHD6-6*01_IGHJ1*01 S102A/S103P/S104F/H111F (APFF) & L6_IGKJ1*01 S30P (Fab, V domains shown)
VH: B9 VH with L52N
VL: EIVLTQSPATLSLSPGERATLSCRASQSVPSYLAWYQQKPGQAPRLLIYDASNRATGIPARFSGSGSGTDFTLTISSLEPEDFAVYYCQQRSNWPPWTFGQGTKVEIKR
notes: Fab expressed in E. coli: VH joined to CH1 (Plasmid A, His6 and Flag tags), VL joined to kappa CL (Plasmid C); also called APFF S30P
B20: Fab VH1-46_IGHD6-6*01_IGHJ1*01 S102A/S103P/S104F/H111F (APFF) & L6_IGKJ1*01 S30R (Fab, V domains shown)
VH: B9 VH with L52N
VL: B19 VL with P30R
notes: Fab expressed in E. coli: VH joined to CH1 (Plasmid A, His6 and Flag tags), VL joined to kappa CL (Plasmid C); also called APFF S30R

The binders below were run against T1, Recombinant Human DLL4 (delta-like protein 4) (human, UniProt Q9NR61 27-524) (assay: ELISA, DLL4 coated on plate, 100 nM Fab).
T1 construct: Bought recombinant human DLL4 (R&D Systems Cat#1506-D4/CF) coated on the ELISA plate; also called rHuman DLL4; Delta-like ligand 4

Row | ELISA Signal-blank (100 nM Fab) | Binder
1 | 0.17 | B1
2 | 0.21 | B2
3 | 0.3 | B3
4 | 0.17 | B4
5 | 0.23 | B5
6 | 0.1 | B6
7 | 0.2 | B7
8 | 0.24 | B8

The binders below were run against T2, Recombinant Human DLL4 (delta-like protein 4) (human, UniProt Q9NR61 27-524) (assay: ECL 96-well plate assay on immobilised DLL4, 10 nM Fab).
T2 construct: Bought recombinant protein (R&D Systems Cat#1506-D4/CF); also called rHuman DLL4

Row | ECL signal | Binder
9 | 75500 | B9
10 | 62200 | B10
11 | 87000 | B11
12 | 44800 | B12
13 | 21600 | B13
14 | 60600 | B14
15 | 24500 | B15
16 | 64700 | B16
17 | 66800 | B17
18 | 18400 | B18

These binders were tested against T3, Recombinant Human DLL4 (R&D Systems Cat#1506-D4/CF) (human, UniProt Q9NR61 27-524) (assay: ECL multispot (MSD) binding assay, DLL4 signal over blank spot; Fab concentration not given).
T3 construct: Bought recombinant protein; also called delta-like protein 4; rHuman DLL4

Row | Signal/Blank | Binder
19 | 4.4 | B19
20 | 350 | B20

The binders below were run against T3, Recombinant Human DLL4 (R&D Systems …) (assay: ECL multispot (MSD) binding assay, DLL4 spotted on plate, purified Fab in solution; Fab concentration not given).

Row | ECL signal | Binder
21 | 1140 | B19
22 | 146000 | B20

These binders were tested against T2, Recombinant Human DLL4 (delta-like …) (assay: ELISA on plate-coated DLL4, 100 nM Fab).

Row | ELISA signal | Binder
23 | 1.06 | B9
24 | 0.28 | B10
25 | 0.42 | B11
26 | 0.18 | B12
27 | 0.01 | B13
28 | 0.1 | B14
29 | 0.01 | B15
30 | 0.24 | B16
31 | 0.61 | B17
32 | 0.03 | B18
